Binding result and Kd data for 1 molecule are collected here from patent US20210285971A1 (ROYAL INSTITUTION FOR THE ADVANCEMENT OF LEARNING MCGILL …, published 2021).

The target in one assay is T1, synthetic Aβ35 peptide (UniProt P05067 672-706).
T1 construct: domain: Aβ35
The assay can be described thus: SPR (Biacore T200), single-cycle kinetics, peptide as analyte (7.8-2000 nM) over mab34 captured on an anti-mouse Fc sensor. The protocol: (§1) Using a BIACORE T200 system (GE Healthcare Bio-Sciences AB, Upsala, Sweden; v2.0 Control and v1.0 Evaluation software), SPR experiments were performed at 25° C. using filtered (0.2 μm) and degassed HBS-EP+ buffer (10 mM HEPES pH 7.4; 150 mM NaCl; 3 mM EDTA; 0.05% (v/v) Tween™-20). Using Biacore's Amine Coupling Kit, Mouse Antibody Capture Kit, and CM5 sensors, an anti-mouse Fc antibody (14 μg/mL in 10 mM sodium acetate pH 5.0) was immobilized to the flow cells (8000 RU each) as recommended by GE. To assess binding specificity, a variety of Aβ peptides (0 2 μM; 4-fold dilution series) were titrated over reference (anti-mouse Fc antibody only) and active (1000 RU mab34 captured to anti-mouse Fc antibody) surfaces in single-cycle kinetic mode (25 uL/min.×5 min. association+10 min. dissociation). Between each sample series, surfaces were regenerated at 50 μL/min. using two 30 sec pulses of Pierce Gentle Ag/Ab Elution Buffer pH 6.6 (Thermo Scientific #21027) as well as 10 mM glycine pH 1.7.
For orientation: In SPR one partner is held on a chip, and binding of the other changes the refractive index at the surface.

The next assay concerns the target T2, synthetic Aβ38 peptide (UniProt P05067 672-709).
T2 construct: domain: Aβ38
Described as above. The protocol: as §1

For a further assay, the target named is T3, synthetic Aβ40 peptide (UniProt P05067 672-711).
T3 construct: domain: Aβ40
The description is as above. The procedure: as §1

The next assay concerns the target T4, synthetic Aβ42 peptide (UniProt P05067 672-713).
T4 construct: domain: Aβ42; also called Abeta42
Described as above. The procedure: as §1

Assay [1] has as its target Aβ34 G33A variant (G33A modified neo-epitope). The assay can be described thus: SPR (Biacore T200), single-cycle kinetics, Aβ34 variant peptide as analyte (7.8-2000 nM) over mab34 captured on an anti-mouse Fc sensor. The protocol: as §1
The next assay addresses T5, synthetic Aβ34 peptide.
T5 construct: Synthetic peptide from PSL, Germany
The experiment in a line: SPR (Biacore T200), multi-cycle titration of Aβ34 (0-1.6 µM, 3-fold series) over mab34 captured on an anti-mouse Fc sensor; steady-state affinity fit of Requilibrium against concentration. The procedure:
as §1, with “To assess binding specificity, a variety of Aβ peptides (0 2 μM; 4-fold dilution series) were titrated over reference (anti-mouse Fc antibody only) and active (1000 RU mab34 captured to anti-mouse Fc antibody) surfaces in single-cycle kinetic mode (25 uL/min.×5 min. association+10 min. dissociation).” left out

Sequence of Aβ34 G33A variant (G33A modified neo-epitope) (peptide, as listed by the source G33A G33A G33A G33A): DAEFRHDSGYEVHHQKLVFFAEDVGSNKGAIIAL
T1 sequence (P05067 672-706 limits assumed): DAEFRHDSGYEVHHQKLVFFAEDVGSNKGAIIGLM
T2 sequence (P05067 672-709 limits assumed): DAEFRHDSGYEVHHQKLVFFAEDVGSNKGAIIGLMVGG
T3 sequence (P05067 672-711 limits assumed): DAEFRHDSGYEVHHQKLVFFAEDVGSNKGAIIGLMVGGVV
T4 sequence (P05067 672-713 limits assumed): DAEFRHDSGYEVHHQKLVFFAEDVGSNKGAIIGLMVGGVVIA
T5 sequence (peptide, as listed by the source): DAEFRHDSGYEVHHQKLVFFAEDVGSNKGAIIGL

B1: mab34 (monoclonal neo-epitope anti-Aβ34 antibody) (antibody, V domains shown)
VH: VKLVESGGGLVKPGGSLKLSCAASGFTFSTYAMSWVRQTPEKRLEWVASISSGGNTYYPDSVKGRFTISRDNARHILYLQMSSLRSEDTAMYYCARDSYYFGNSVYYAMDYWGQGTSVTVSS
VL: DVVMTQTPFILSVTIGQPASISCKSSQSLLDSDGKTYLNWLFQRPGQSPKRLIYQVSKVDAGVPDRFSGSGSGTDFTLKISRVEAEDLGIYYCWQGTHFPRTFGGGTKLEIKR
notes: Mouse monoclonal from a hybridoma (Balb/cJ mice immunised with Aβ27-34-KLH); In SPR it was captured on an anti-mouse Fc surface
For B1, the binding result (with synthetic Aβ35 peptide; in the assay with synthetic Aβ38 peptide; with synthetic Aβ40 peptide; in the assay with synthetic Aβ42 peptide; in assay [1]) was “no binding (tested: 2000 nM)” throughout. In addition, in the assay with synthetic Aβ34 peptide, the dissociation constant (Kd) (commonly the equilibrium constant for the complex coming apart) was around 40 nM.
